In patent publication US20200353078A1 (AstraZeneca / MedImmune, published 2020):
Where two headings read alike, the source gives them in different places. Blank lines part the entries; values can stand above or below the binder they belong to.

Experiments:
His10/Avi Human IL33-01 [1] = target: T1, His10/Avi Human IL33-01 (human); assay: HTRF epitope competition, IgG titrated; competitor DyLight labelled 33_640117 IgG; overnight
T1 construct: Wild type mature IL-33 with N-terminal 10xHis, Avitag and Factor Xa site; biotinylated by BirA on the Avitag where used biotinylated; reduced form unless treated; also called N-terminal His Avi IL-33; His-Avi human IL-33 wild type
T1 chain: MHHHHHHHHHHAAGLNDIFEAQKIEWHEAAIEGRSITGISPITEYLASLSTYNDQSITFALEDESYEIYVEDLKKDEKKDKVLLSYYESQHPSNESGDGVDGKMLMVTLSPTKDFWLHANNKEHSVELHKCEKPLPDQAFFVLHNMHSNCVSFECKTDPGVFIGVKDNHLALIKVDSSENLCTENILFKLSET
Description: (§1) As the epitope competition assay utilising 33_640027 reached its limit of sensitivity, an assay using 33_640117 was used for testing purified scFv samples. The assay was essentially as described for the 33v20064 competition assay with the following modifications: 2.5 nM DyLight labelled 33_640117 was prepared and 2.5 microlitres added to the assay plates. This was followed by the addition of 2.5 microlitres of a solution containing 0.12 nM biotinylated human IL-33-01 combined with 0.75 nM streptavidin cryptate detection (Cisbio International, 610SAKLB) for the human assay or a solution containing 0.24 nM biotinylated cynomolgus IL-33 combined with 1.5 nM streptavidin cryptate detection (Cisbio International, 610SAKLB) for the cynomolgus assay. Fluorescence was read after one hour and overnight incubation.
(§2) The ability of anti-IL-33 antibodies to inhibit the binding of biotinylated His Avi human IL-33 or cynomolgus His Avi IL-33 to the DyLight labelled 33_640117 IgG was assessed in a biochemical HTRF® (Homogeneous Time-Resolved Fluorescence, Cisbio International) competition assays as described above.

His10/Avi Cyno IL-33 = target: T2, His10/Avi Cyno IL-33 (cynomolgus monkey); assay: HTRF epitope competition, IgG titrated; competitor DyLight labelled 33_640117 IgG; 1 hour
T2 construct: also called Cynomolgus 10His Avitag IL-33; biotinylated His Avi cynomolgus IL-33
T2 chain: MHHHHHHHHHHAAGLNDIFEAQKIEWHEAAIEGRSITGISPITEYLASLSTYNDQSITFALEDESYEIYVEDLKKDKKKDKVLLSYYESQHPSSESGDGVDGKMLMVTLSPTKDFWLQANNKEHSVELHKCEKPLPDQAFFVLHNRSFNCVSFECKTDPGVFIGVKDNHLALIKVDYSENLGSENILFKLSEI
Description: as §1, §2

His10/Avi Human IL33-01 [2] = target: T1, His10/Avi Human IL33-01; assay: as above
Description: as §1, §2

His10/Avi Human IL33-01 [3] = target: T1, His10/Avi Human IL33-01; assay: cell-based or functional assay
[4] = target: T3, Full-length human IL-33 (amino acids 1-270), HEK293-EBNA cell lysate (human, UniProt O95760 1-270); assay: cell-based or functional assay
T3 sequence (looked up): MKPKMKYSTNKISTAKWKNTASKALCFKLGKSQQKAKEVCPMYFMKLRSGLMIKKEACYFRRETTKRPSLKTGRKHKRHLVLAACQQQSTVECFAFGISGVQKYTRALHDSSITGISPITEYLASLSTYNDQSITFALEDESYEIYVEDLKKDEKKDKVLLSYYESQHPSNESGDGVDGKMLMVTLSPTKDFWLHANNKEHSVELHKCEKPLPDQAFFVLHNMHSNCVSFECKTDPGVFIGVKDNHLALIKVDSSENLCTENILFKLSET

[5] = target: T4, Recombinant human IL-33 (construct not named in the example) (human, UniProt O95760 112-270, limits assumed); assay: SPR Biacore T100, 25 C, biotinylated human IL-33 on streptavidin C1 chip, Fab as analyte
T4 construct: also called Recombinant, enzymatically biotinylated human IL-33 (produced in-house); IL-33 (200 nM)
T4 sequence (looked up): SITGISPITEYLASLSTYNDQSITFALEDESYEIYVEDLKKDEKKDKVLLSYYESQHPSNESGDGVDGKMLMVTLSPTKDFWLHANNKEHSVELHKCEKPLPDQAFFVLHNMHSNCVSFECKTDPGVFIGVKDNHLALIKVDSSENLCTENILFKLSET
Description: Fab fragments were generated by papain cleavage from full length IgG1 and purified by SEC. […] Streptavidin was covalently immobilised to a C1 chip surface using standard amine coupling techniques at a concentration of […] in 10 mM Sodium acetate pH 4.5. […] Recombinant, enzymatically biotinylated human IL-33 (produced in-house) was titrated onto the streptavidin chip surface at […] in HBS-EP+ buffer to enable ˜30 RUs of Fab binding at saturation (Rmax). This low level of analyte binding ensured minimal mass transport effects.
The IL-33 Fab was serially diluted from 5 nM to 78 pM in HBS-EP+ buffer and flowed over the chip at 50 μl/min, with 3 minutes association and up to 30 minutes dissociation. Multiple buffer only injections were made under the same conditions to allow for double reference subtraction of the final sensorgram sets, which were analysed using the BiaEval software (version 2.0.1). The chip surface was fully regenerated with pulses of 3M MgCl₂.

[6] = target: T5, Human IL-33 (Axxora/Adipogen AG-40B-0038) (human, UniProt O95760 112-270, limits assumed); assay: cell-based or functional assay
T5 sequence (looked up): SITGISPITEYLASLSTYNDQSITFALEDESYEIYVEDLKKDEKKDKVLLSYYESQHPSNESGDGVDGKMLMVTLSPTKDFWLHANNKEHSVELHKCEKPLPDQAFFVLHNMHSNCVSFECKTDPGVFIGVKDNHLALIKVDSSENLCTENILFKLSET

[7] = target: T5, Human IL-33 (Axxora/Adipogen …); assay: cell-based or functional assay; remark: listed apart in the source
[8] = target: T5, Human IL-33 (Axxora/Adipogen …); assay: cell-based or functional assay; remark: listed apart in the source

IC50 (His10/Avi Human IL33-01 [1]): 0.6 nM
IC50 (His10/Avi Cyno IL-33): 10 nM
IC50 (His10/Avi Human IL33-01 [2]): 0.3 nM
B1: 33_640081 IgG1 (antibody, V domains shown)
VH: EVQLLESGGGSVQPGGSLRLSCAASGFTFSSYAMNWVRQAPGKGLEWVSAISGSGGSTHYADSVKGRFTISRDNSKNTLYLQMNSLRAEDTAVYYCGRAKFMQLWGGGLRYPLGYWGQGTMVTVSS
VL: SYVLTQPPSVSVSPGQTASITCSGERMGDKYAAWYQQKPGQSPVLVIYQDTKRPSGIPERFSGSNSGNTATLTISGTQATDEADYYCQVWAADDTGVFGGGTKVTVL
notes: IgG1; also called ZZ1JMB-H05

IC50 (His10/Avi Human IL33-01 [1]): 0.1 nM
IC50, Huvec IL-8 assay vs. His Avi IL-33 (His10/Avi Human IL33-01 [3]): 0.056 nM
IC50, Huvec IL-8 assay vs. full length IL-33 cell lysate [4]: 0.091 nM
IC50 (His10/Avi Cyno IL-33): 1.8 nM
IC50 (His10/Avi Human IL33-01 [2]): 0.1 nM
B2: 33_640237 IgG1 (antibody, V domains shown)
VH: EVQLLESGGGLVQPGGSLRLSCAASGFTFSSYAMSWVRQAPGKGLEWVSGIADDFTSTYYADPVKGRFTISRDNSKNTLYLQMNSLRAEDTAVYYCARDLWMMNYAGGLRYPFGYWGQGTTVTVSS
VL: SYVLTQPPSVSVSPGQTASITCSGERMGDKYAAWYQQKPGQSPVLVIYRDTKRPSGIPERFSGSNSGNTATLTISGTQAIDEADYYCGVLKQDTGVFGGGTKVTVL
notes: IgG1; also called ZZ1M37-E06

Kd [5]: 3.34 nM
koff [5]: 0.0326 s⁻¹
kon [5]: 9.76e+06 M⁻¹ s⁻¹
B3: 33_640001 Fab (Fab, V domains shown)
VH: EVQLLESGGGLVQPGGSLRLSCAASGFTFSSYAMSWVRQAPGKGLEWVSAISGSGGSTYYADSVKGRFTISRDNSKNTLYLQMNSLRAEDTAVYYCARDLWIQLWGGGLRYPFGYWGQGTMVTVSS
VL: SYVLTQPPSVSVSPGQTASITCSGERMGDKYAAWYQQKPGQSPVLVIYQDTKRPSGIPERFSGSNSGNTATLTISGTQAMDEADYYCQVWDSSTGVFGGGTKVTVL
notes: Fab made by papain cleavage of full length IgG1

Kd [5]: 0.00043 nM
koff [5]: 9.42e-06 s⁻¹
kon [5]: 2.2e+07 M⁻¹ s⁻¹
B4: 33_640087-7B Fab (Fab, V domains shown)
VH: EVQLLESGGGLVQPGGSLRLSCAASGFTFSSYAMSWVRQAPGKGLEWVSGISAIDQSTYYADSVKGRFTISRDNSKNTLYLQMNSLRAEDTAVYYCARQKFMQLWGGGLRYPFGYWGQGTMVTVSS
VL: SYVLTQPPSVSVSPGQTASITCSGEGMGDKYAAWYQQKPGQSPVLVIYRDTKRPSGIPERFSGSNSGNTATLTISGTQAMDEADYYCGVIQDNTGVFGGGTKLTVL
notes: as for B3

IC50 (His10/Avi Human IL33-01 [1]): 0.1 nM
IC50, Huvec IL-8 assay vs. His Avi IL-33 (His10/Avi Human IL33-01 [3]): 0.03 nM
IC50, Huvec IL-8 assay vs. full length IL-33 cell lysate [4]: 0.097 nM
IC50 (His10/Avi Cyno IL-33): 0.2 nM
IC50 (His10/Avi Human IL33-01 [2]): 0.1 nM
B5: 33_640082-6 IgG1 (antibody, V domains shown)
VH: EVQLLESGGGLVQPGGSLRLSCAASGFTFSSYAMSWVRQAPGKGLEWVSGISGIDTSTYYADSVKGRFTISRDNSKNTLYLQMNSLRAEDTAVYYCARQKFMQLWGGGLRYPFGYWGQGTMVTVSS
VL: SYVLTQPPSVSVSPGQTASITCSGERMGDKYAAWYQQKPGQSPVLVIYRDTKRPSGIPERFSGSNSGNTATLTISGTQAMDEADYYCGVLKQDTGVFGGGTKVTVL
notes: IgG1

Kd [5]: 0.0034 nM
koff [5]: 0.000105 s⁻¹
kon [5]: 3.08e+07 M⁻¹ s⁻¹
B6: 33_640050 Fab (Fab, V domains shown)
VH: EVQLLESGGGLVQPGGSLRLSCAASGFTFSSYAMSWVRQAPGKGLEWVSAISGSGGSTYYADSVKGRFTISRDNSKNTLYLQMNSLRAEDTAVYYCPRHKFMQLWGGGLRYPFGYWGQGTMVTVSS
VL: SYVLTQPPSVSVSPGQTASITCSGERMGDKYAAWYQQKPGQSPVLVIYQDTKRPSGIPERFSGSNSGNTATLTISGTQAMDEADYYCQVWDSSTGVFGGGTKVTVL
notes: as for B3

Huvec IL-6 production, maximum inhibition [6]: ~70%
B7: IL330377 IgG1 (antibody, V domains shown)
VH: EVQLLESGGGLVQPGGSLRLSCAASGFTFSSYAMSWVRQAPGKGLEWVSASDMLYGSTYYADSVKGRFTISRDNSKNTLYLQMNSLRAEDTAVYYCSQNILGYFDSWGRGTLVTVSS
VL: SYVLTQPPSVSVSPGQTARITCSGDALPKQYAHWYQQKPGQAPALVIYKDTERPSGIPERFSGSSSGTTVTLTISGVQAEDEADYYCQSADSTGYHRVFGGGTKVTVL

Huvec IL-6 production, maximum inhibition [6]: ~70%
B8: IL330398 IgG1 (antibody, V domains shown)
VH: EVQLLESGGGLVQPGGSLRLSCAASGFTFSSYAMSWVRQAPGKGLEWVSASTPWQGSTYYADSVKGRFTISRDNSKNTLYLQMNSLRAEDTAVYYCVRWYWGWIDSWGRGTLVTVSS
VL: SYVLTQPPSVSVSPGQTARITCSGDALPKQYAHWYQQKPGQAPALVIYKDTERPSGIPERFSGSSSGTTVTLTISGVQAEDEADYYCLSSDASGASRVFGGGTKVTVL

IC50, Huvec IL-6 production [7]: 2.1 nM
IC50, Mast cell IL-6 production [7]: 1.2 nM
B9: IL330388_fgl IgG1 (antibody, V domains shown)
VH: EVQLLESGGGLVQPGGSLRLSCAASGFTFSSYAMSWVRQAPGKGLEWVSASTPWQGSTYYADSVKGRFTISRDNSKNTLYLQMNSLRAEDTAVYYCVRWYWGWIDSWGRGTLVTVSS
VL: SYELMQPPSVSVSPGQTARITCSGDALPKQYAHWYQQKPGQAPVLVIYKDTERPSGIPERFSGSSSGTTVTLTISGVQAEDEADYYCMSSDPSGASRVFGGGTKLTVL

IC50, Huvec IL-6 production [7]: 6.6 nM
IC50, Mast cell IL-6 production [7]: 1.3 nM
B10: IL330377_fgl IgG1 (antibody, V domains shown)
VH: EVQLLESGGGLVQPGGSLRLSCAASGFTFSSYAMSWVRQAPGKGLEWVSASDMLYGSTYYADSVKGRFTISRDNSKNTLYLQMNSLRAEDTAVYYCSQNILGYFDSWGRGTLVTVSS
VL: SYELMQPPSVSVSPGQTARITCSGDALPKQYAHWYQQKPGQAPVLVIYKDTERPSGIPERFSGSSSGTTVTLTISGVQAEDEADYYCQSADSTGYHRVFGGGTKLTVL

IC50, Huvec IL-6 production [7]: 1.5 nM
IC50, Mast cell IL-6 production [7]: 0.9 nM
B11: IL330398_fgl IgG1 (antibody, V domains shown)
VH: EVQLLESGGGLVQPGGSLRLSCAASGFTFSSYAMSWVRQAPGKGLEWVSASTPWQGSTYYADSVKGRFTISRDNSKNTLYLQMNSLRAEDTAVYYCVRWYWGWIDSWGRGTLVTVSS
VL: SYELMQPPSVSVSPGQTARITCSGDALPKQYAHWYQQKPGQAPVLVIYKDTERPSGIPERFSGSSSGTTVTLTISGVQAEDEADYYCLSSDASGASRVFGGGTKLTVL

IC50, Huvec IL-6 production [7]: 2.8 nM
IC50, Mast cell IL-6 production [7]: 1.5 nM
B12: IL330396_fgl IgG1 (antibody, V domains shown)
VH: EVQLLESGGGLVQPGGSLRLSCAASGFTFSSYAMSWVRQAPGKGLEWVSASTPWQGSTYYADSVKGRFTISRDNSKNTLYLQMNSLRAEDTAVYYCVRWYWGWIDSWGRGTLVTVSS
VL: SYELMQPPSVSVSPGQTARITCSGDALPKQYAHWYQQKPGQAPVLVIYKDTERPSGIPERFSGSSSGTTVTLTISGVQAEDEADYYCMSSDDTGASRVFGGGTKLTVL

IC50, Mast cell IL-6 production [8]: 22 nM
B13: IL330180 IgG (antibody, V domains shown)
VH: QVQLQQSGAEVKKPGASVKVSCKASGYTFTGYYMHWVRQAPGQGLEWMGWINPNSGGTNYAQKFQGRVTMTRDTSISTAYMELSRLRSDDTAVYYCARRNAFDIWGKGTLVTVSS
VL: QPVLTQPPSVSEAPRQRVTISCSGSSSNIGNNAVNWYQQLPGTAPKLLIYRNNQRPSGVPDRFSGSKSGTSASLAISGLRSEDEADYYCAAWDDSLSGWVFGGGTKVNVL
